Assay results taken from patent US20050074840A1 (published 2005).

B1: TNFrED H34P (receptor)
chain: DSVCPQGKYIHPQNNSICCTKCPKGTYLYNDCPGPGQDTDCRECESGSFTASENHLRHCLSCSKCRKEMGQVEISSCTVDRDTVCGCRKNQYRHYWSENLFQCFNCSLCLNGTVHLSCQEKQNTVCTCHAGFFLRENECVSCSNCKKSLECTKLCLPQIEN
notes: Secreted from HEK293-EBNA cells, conditioned medium
B2: TNFrED H34P+S87P (receptor)
chain: DSVCPQGKYIHPQNNSICCTKCPKGTYLYNDCPGPGQDTDCRECESGSFTASENHLRHCLSCSKCRKEMGQVEISPCTVDRDTVCGCRKNQYRHYWSENLFQCFNCSLCLNGTVHLSCQEKQNTVCTCHAGFFLRENECVSCSNCKKSLECTKLCLPQIEN
notes: as for B1
B3: TNFrED S87P (receptor)
chain: DSVCPQGKYIHPQNNSICCTKCHKGTYLYNDCPGPGQDTDCRECESGSFTASENHLRHCLSCSKCRKEMGQVEISPCTVDRDTVCGCRKNQYRHYWSENLFQCFNCSLCLNGTVHLSCQEKQNTVCTCHAGFFLRENECVSCSNCKKSLECTKLCLPQIEN
notes: as for B1
B4: TNFrED H34P+S57I+S87P (receptor)
chain: DSVCPQGKYIHPQNNSICCTKCPKGTYLYNDCPGPGQDTDCRECEIGSFTASENHLRHCLSCSKCRKEMGQVEISPCTVDRDTVCGCRKNQYRHYWSENLFQCFNCSLCLNGTVHLSCQEKQNTVCTCHAGFFLRENECVSCSNCKKSLECTKLCLPQIEN
notes: Secreted from HEK293-EBNA cells, conditioned medium; also called H34P + S87P + S571
B5: TNFrED S57I (receptor)
chain: DSVCPQGKYIHPQNNSICCTKCHKGTYLYNDCPGPGQDTDCRECEIGSFTASENHLRHCLSCSKCRKEMGQVEISSCTVDRDTVCGCRKNQYRHYWSENLFQCFNCSLCLNGTVHLSCQEKQNTVCTCHAGFFLRENECVSCSNCKKSLECTKLCLPQIEN
notes: Secreted from HEK293-EBNA cells, conditioned medium; also called S571
B6: TNFrED H34P+S57I (receptor)
chain: DSVCPQGKYIHPQNNSICCTKCPKGTYLYNDCPGPGQDTDCRECEIGSFTASENHLRHCLSCSKCRKEMGQVEISSCTVDRDTVCGCRKNQYRHYWSENLFQCFNCSLCLNGTVHLSCQEKQNTVCTCHAGFFLRENECVSCSNCKKSLECTKLCLPQIEN
notes: Secreted from HEK293-EBNA cells, conditioned medium; also called H34P + S571

target: T1, human TNF-alpha (hTNF-alpha) (human, UniProt P01375 77-233); assay: SPR (BIAcore), TNFrED captured on BAF225 anti-TNFrED surface, TNF-alpha injected at 1-100 nM, global 1:1 fit
T1 construct: also called biotinylated hTNF-; [125I]TNF-
Text: Conditioned media from transient transfections of HEK293-EBNA cells were concentrated with Centricon 10s and the amount of TNFrED protein was quantitated with the R & D Systems ELISA for hTNF R-1. […] Conditioned medium (no TNFrED) and HBS were used as negative controls.

**Q.** Which results are given for B1?
**A.** Kd: 0.5 nM; koff: 0.0009 s⁻¹; kon: 1.9e+06 M⁻¹ s⁻¹

**Q.** With B2 as the binder, how does the Kd read?
**A.** 0.6 nM

**Q.** And the koff?
**A.** 0.0012 s⁻¹

**Q.** And the kon?
**A.** 1.9e+06 M⁻¹ s⁻¹

**Q.** What does the source list for B3?
**A.** Kd: 0.6 nM; koff: 0.0011 s⁻¹; kon: 2e+06 M⁻¹ s⁻¹

**Q.** What does the source list for B4?
**A.** Kd: 0.6 nM; koff: 0.001 s⁻¹; kon: 1.8e+06 M⁻¹ s⁻¹

**Q.** For B5, which Kd is on record?
**A.** 0.5 nM

**Q.** And the koff?
**A.** 0.0009 s⁻¹

**Q.** And the kon?
**A.** 1.9e+06 M⁻¹ s⁻¹

**Q.** With B6 as the binder, how does the Kd read?
**A.** 0.6 nM

**Q.** What about the koff of the same binder?
**A.** 0.0012 s⁻¹

**Q.** And the kon?
**A.** 1.9e+06 M⁻¹ s⁻¹
